Laboratory results: patent publication US20230102344A1
Positions count from the first letter of the chain named.

B1: BJM0901 (bispecific antibody, not shown: a dimerising Fc or GST; large carriers)
heavy: QVQLVQSGAEVKKPGSSVKVSCKASGTDFKLTYIHWVRQAPGQGLEWMGRIFPGSGNVKYNEKFKGRVTITADTSTSTAYMELSSLRSEDTAVYYCAGSYYSYDVLDYWGQGTTVTVSSGGGGSGGGGSGGGGSGGGGSDIQMTQSPSFLSASVGDRVTITCKASQNVDNRVAWYQQKPGKAPKALIYSSSHRYKGVPSRFSGSGSGTEFTLTISSLQPEDFATYFCQQFKSYPLTFGQGTKLEIKGGGGSQVQLVQSGAEVKKPGSSVKVSCKASGYTFTDYNMHWVRQAPGQGLEWIGYIYPYNGGTGYNQKFKSKATITADESTNTAYMELSSLRSEDTAVYYCARGRPAMDYWGQGTLVTVSS
light: DIQMTQSPSSLSASVGDRVTITCRASESVDNYGISFMNWFQQKPGKAPKLLIYAASNQGSGVPSRFSGSGSGTDFTLTISSLQPDDFATYYCQQSKEVPWTFGQGTKVEIK
B2: BJM0498 (scFv, part only; not given: Fc scaffold making it bivalent, part only)
scFv, part: QVQLVQSGAEVKKPGSSVKVSCKASGTDFKLTYIHWVRQAPGQGLEWMGRIFPGSGNVKYNEKFKGRVTITADTSTSTAYMELSSLRSEDTAVYYCAGSYYSYDVLDYWGQGTTVTVSSGGGGSGGGGSGGGGSGGGGSDIQMTQSPSFLSASVGDRVTITCKASQNVDNRVAWYQQKPGKAPKALIYSSSHRYKGVPSRFSGSGSGTEFTLTISSLQPEDFATYFCQQFKSYPLTFGQGTKLEIK
B3: BJM0501 (scFv, part only; not given: Fc scaffold making it bivalent, part only)
scFv, part: B2 scFv, part with T27H, K30R, F52S, P53A, D169A, N170D
B4: A-H.68 (scFv, not shown: a dimerising Fc or GST)
scFv: B2 scFv, part with T27H, K30R, F52S, P53A, G98V, D169A, N170D
B5: A-H.13 (scFv)
scFv: B2 scFv, part
B6: BJM0897 (antibody, V domains shown)
VH: QVQLVQSGAEVKKPGSSVKVSCKASGTDFKLTYIHWVRQAPGQGLEWMGRIFPGSGNVKYNEKFKGRVTITADTSTSTAYMELSSLRSEDTAVYYCAGSYYSYDVLDYWGQGTTVTVSS
VL: DIQMTQSPSFLSASVGDRVTITCKASQNVDNRVAWYQQKPGKAPKALIYSSSHRYKGVPSRFSGSGSGTEFTLTISSLQPEDFATYFCQQFKSYPLTFGQGTKLEIK
B7: BJM0899 (antibody, V domains shown)
VH: B6 VH with T27H, K30R, F52S, P53A
VL: B6 VL with D30A, N31D
B8: BJM0912 (antibody, V domains shown)
VH: B6 VH with T27H, K30H, T32W, I51V, F52S, P53A
VL: B6 VL with R32K, Y36H
B9: BJM0502 (scFv, part only; not given: Fc scaffold making it bivalent, part only)
scFv, part: B2 scFv, part with T27H, K30H, T32W, I51V, F52S, P53A, R171K, Y175H
B10: A-H.58 (scFv)
scFv: B2 scFv, part with T27H, K30R, I51V, F52S, P53A, G98V, D169G, A173V, Y175H
B11: A-H.59 (scFv)
scFv: B2 scFv, part with T27H, K30R, F52Y, P53A, G98V, D169A, N170D, A173V, Y175H
B12: A-H.61 (scFv)
scFv: B2 scFv, part with T27H, I51V, F52S, P53A, V58T, G98V, Y175H
B13: A-H.57 (scFv)
scFv: QVQLVQSGAEVKKPGSSVKVSCKASGHDFRLTYIHWVRQAPGQGLEWMGRVSAGSGNTKYNEKFKGRVTITADTSTSTAYMELSSLRSEDTAVYYCAVSYYSYDVLDYWGQGTTVTVSSGGGGSGGGGSGGGGSGGGGSDIQMTQSPSFLSASVGDRVTITCKASQNVGDRVVWHQQKPGKAPKALIYSSSHRYKGVPSRFSGSGSGTEFTLTISSLQPEDFATYFCQQFKSYPLTFGQGTKLEIK
B14: A-H.63 (scFv)
scFv: B13 scFv with S52Y, G169E
B15: A-H.65 (scFv)
scFv: B13 scFv with R30K, V51I
B16: A-H.62 (scFv)
scFv: B13 scFv with T58V, G169A
B17: A-H.66 (scFv)
scFv: B13 scFv with R30K, V51I, S52Y
B18: A-H.60 (scFv)
scFv: B13 scFv with R30K, V173A
B19: A-H.64 (scFv)
scFv: B13 scFv with R30K, G169A
B20: A-H.23 (scFv, not shown: a dimerising Fc or GST)
scFv: B13 scFv with V51I, T58V, V98G, G169A, V173A, H175Y
B21: A-H.67 (scFv)
scFv: B2 scFv, part with G98V
B22: A-H.24 (scFv)
scFv: B13 scFv with R30H, T32W, T58V, V98G, G169D, D170N, R171K, V173A

Target: cynomolgus TCRvβ (BJM0847) (cynomolgus)
Assay: SPR (Biacore), Table 21; set-up not restated

Binder	Kd [nM]
B1	55
B2	86

Target: human TCRvβ (BIM0444) (human)
Sequence (A0A0K0K1A5 22-114): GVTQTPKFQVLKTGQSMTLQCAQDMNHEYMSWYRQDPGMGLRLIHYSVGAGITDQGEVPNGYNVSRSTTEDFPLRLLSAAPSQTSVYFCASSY
Assay: SPR (Biacore), Table 21; set-up not restated

Binder	Kd [nM]
B1	7.09
B2	7.9

Target: cynomolgus TCRvβ (BJM0847) (cynomolgus)
Assay: SPR (Biacore), comparison with the parental antibody

Binder	fold improvement of affinity compared to the parental antibody [fold]
B3	6
B2	6

Target: cynomolgus TCRvβ (BJM0847) (cynomolgus)
Assay: SPR (Biacore): antibody amine-coupled to CM5, BJM0847 as analyte, 1:1 fit

Binder	Kd [nM]
B4	59
B5	173

Target: cynomolgus TCRvβ (BJM0847) (cynomolgus)
Assay: SPR (Biacore): antibody captured on Protein L chip, BJM0847 as analyte, 1:1 fit

Binder	Kd [nM]
B6	69
B7	130
B8	326
B9	387
B10	0.158
B11	5
B12	0.607
B13	0.762
B14	5.8
B3	87
B15	0.725
B16	0.766
B17	2.2
B18	1.6
B2	86
B19	1

Target: human TCRvβ (BIM0444) (human)
Assay: SPR (Biacore): antibody captured via anti-human Fc on CM5, BIM0444 as analyte, 1:1 fit

Binder	Kd [nM]
B6	7.2
B7	3.7
B8	28
B9	20
B20	1.7
B10	0.491
B11	0.323
B21	20
B12	0.349
B13	0.469
B4	0.829
B14	0.274
B3	4.1
B22	12
B15	0.396
B16	0.447
B5	3.8
B17	0.338
B18	0.445
B2	7.9
B19	0.486
